Source: the DeepSol protein solubility set

Assay: soluble on expression in E. coli; label from the status in PepcDB or PDB records

| Sequence | soluble on expression in E. coli |
| --- | --- |
| MSVDLKRGETLPIHVNMTFPSLPCDVLSVDAIDMSGKHEVDLDTNIWKLRLNSHGHIIGTEYISDLVEKGHEHDGKEEHKNETETEALNILGFDQAAETMIKKVKQALADGEGCRVYGVLDVQRVAGNFHISVHGLNIYVAQMIFGGSKNVNVSHMIHDLSFGPKYPGIHNPLDDTNRILHDTSGTFKYYIKIVPTEYRYLSKDVLSTNQYSVTEYFTPMTEFDRTWPAVYFLYDLSPITVTIKEERRSFLHLITRLCAVLGGTFALTGMLDRWMFRFIESFNKKPSTRA | soluble |
| MSVDMNSQGSDSNEEDYDPNCEEEEEEEEDDPGDIEDYYVGVASDVEQQGADAFDPEEYQFTCLTYKESEGALNEHMTSLASVLKVSHSVAKLILVNFHWQVSEILDRYKSNSAQLLVEARVQPNPSKHVPTSHPPHHCAVCMQFVRKENLLSLACQHQFCRSCWEQHCSVLVKDGVGVGVSCMAQDCPLRTPEDFVFPLLPNEELREKYRRYLFRDYVESHYQLQLCPGADCPMVIRVQEPRARRVQCNRCNEVFCFKCRQMYHAPTDCATIRKWLTKCADDSETANYISAHTKDCPKCNICIEKNGGCNHMQCSKCKHDFCWMCLGDWKTHGSEYYECSRYKENPDIVNQSQQAQAREALKKYLFYFERWENHNKSLQLEAQTYQRIHEKIQERVMNNLGTWIDWQYLQNAAKLLAKCRYTLQYTYPYAYYMESGPRKKLFEYQQAQLEAEIENLSWKVERADSYDRGDLENQMHIAEQRRRTLLKDFHDT | soluble |
| MSVHPAVQSLCEQPIDTIGLTAVSAVASALGDVSTATDLIQRPEQEKALHDLLKKCMSILNNSGKNSALRLACLECLYVLSQPPIPAFRTGLLCNTLNSVNSSVEEMLARTGPSEAESSSSAREMFTVLVFRFTNYDTKVARLLLQHMCDGDVGTMMQTLLRVMVQHCETCEWPLLQAALQSLYELTVPTTYYATGKDGAAEPSFDSAATATGSSLQSFTVESFQDRIAVLLTEMRNHRLLEKLLASLRLSWHESTHNRSPPSLAQGCAESVALGALGCPDVAHTVTSASAEQQMELLNWLSAFTLLCRALDNMVEFCRDAKLAREVRARLLSDPSCHDWLASAAVPAVIAAIQVWMSDDGASATPAAISDGSAGPFATAKVKLSLLTAAVTLLRLLRFALYKPAMGFTAALLSSMGCLAAQVQRGEPHLRLQYGGMQVMLLTVECLVNMNAVAVTSPVNLSESYRGLLRTIAADKTRCTLSNCSSDVSSDHGAVAERQPDALMPVAEWFILCVREEESPFCDIDSGNASVALLHECFASEEARLQDAADRVADLAALESQLAMMQNFLLLMTLTELLSGLPDGGLERLTQPGPRRRNSATDAEQKPPNNSDSSSRRCKLSKKKVSHHPAAYVCDLTGKLMREPVVLKGGHRFEFDALQNVILQVGHVDPISGESIDEDVEVNIPLQQEIAAYRVKRASEKGGS | not soluble |
| MSVLGFDIGNLNCYIGVARQGGIEVITNDYSLHATPACVSFGPKDRSMGVAARQAVTTNIKNTVINFKHLIGRKFSDPVAQRFIPFIPCKVVKLPNDDIGVQVSYLGEPHTFTPEQVLAALLTKLRTIVESQLSDVKKVSDCVLAVPSYFTDVQRRAVLSAIQYAGLNSLRIVNETTAIALAYGIYKQDLPEEDAKSRNVVFLDIGHSSTQASLVAFNRGKLQMVNTSYDLESGGIWFDALIREHFRKEFKTKYGIDAATSPRPWLRLLDECERVKKQMSANQTPIPLNIECFMEDKDVTGKMQRQEFEDLAAPIFNRIKQVLINLFADGVSIKPEEIDEIEIVGGSSRIPMIREIVKDLFGKEPKTTMNQDEAVARGAAMQCAILSPTFRVREFAIKDTQPYRIRLSWNSTGENGGENDVFSPRDEVPFSKLVSLLRSGPFNVEAHYAQPNVVPHNQVHIGSWKVNGARPGADGGNQKVKVKVRVNPDGIFTIASATMYEPRIVEEVPAEAMEVDGDAKTEAPAEPLEPVKKTKLVPVDLEVIESIPVSYDVQKFHNLELQMQESDAREKAKADAKNSLEEYVYEMRDKVSDQYAEFITPAAADEFRSVLTSTEDWLYDEGEDAERDVYEKRLSELKAVGTPVVERYRESETRKPAFDSFDQSIMRVRKAYEDYANGGPTYAHLDSKEMEKVINAIEDKKKWLDEARHKQETRSKTDAPVVFTEEILQNKNVFENVVNPILNKKKPAAPAPPKKEEPQPAAGDQPQSQPGEMDVD | not soluble |
| MSWQNQGMQALIPVINRVQDAFSQLGTSVSFELPQIAVVGGQSAGKSSVLENFVGKDFLPRGSGIVTRRPLILQLIQDRNEYAEFLHKKGHRFVDFDAVRKEIEDETDRVTGQNKGISPHPINLRVFSPNVLNLTLIDLPGLTKVPVGDQPADIEQQIRDMILTFINRETCLILAVTPANSDLATSDALKLAKEVDPQGLRTIGVLTKLDLMDEGTDAREILENKLFTLRRGYVGVVNRGQKDIVGRKDIRAALDAERKFFISHPSYRHMADRLGTSYLQHTLNQQLTNHIRDTLPTLRDSLQKKMFAMEKDVAEYKNYQPNDPGRKTKALLQMVTQFNADIERSIEGSSAKLVSTNELSGGARINRLFHERFPFEIVKMEIDEKEMRKEIQYAIRNIHGIRVGLFTPDMAFEAIAKKQITRLKEPSLKCVDLVVNELANVIRQCADTMARYPRLRDELERIVVSHMREREQIAKQQIGLIVDYELAYMNTNHEDFIGFSNAEAKASQGQSAKKNLGNQVIRKGWLSLSNVSFVRGSKDNWFVLMSDSLSWYKDDEEKEKKYMLPLDGVKLKDIEGGFMSRNHKFALFYPDGKNIYKDYKQLELGCTNLDEIDAWKASFLRAGVYPEKQKAQEDESQQEMEDTSIDPQLERQVETIRNLVDSYMRIITKTIKDLVPKAVMHLIVNQTGEFMKDELLAHLYQCGDTDALMEESQIEAQKREEMLRMYHACKEALRIISEVNMSTLGDQPPPLPMSDYRPHPSGPSPVPRPAPAPPGGRQAPMPPRGGPGAPPPPGMRPPPGAPGGGGGMYPPLIPTRVPTPSNGAPEIPARPQVPKRPF | not soluble |
| MSWWCCIPKSKKGENPYSHGVSGIPPEKNIRLFSYSELRSATENFNRSNKIGRGGFGTVYKGTIRNGRDVAVKVLSAESRQGVREFLTEIDVITNVKHPNLVELIGCCVEGNNRILVYEYLENSSLDRALLGSNSEPANFTWSIRSAICIGIAKGLAYLHEEIASPIVHRDIKASNILLDKLYNPKIGDFGLAKLFPDNITHISTRVAGTTGYLAPEYAWHGQLTKRADIYSFGVLVLEIVSGKSSSRSLLADDKILLEKAWELHEVGKLKELVDSEMGDYPEEEVLRYIKTALFCTQAAAARRPSMPQVVTMLSKPIRINERELTAPGYIHDYNGTVSKATNSSNSRFKHSASDTSDMFSTVVPPTVSEISPR | not soluble |
| MSYLSAIENQENMVVKQEIKIEEEDDDYPLSTIDMAVQALIRNPHHNVDYICGVMIFGGSKNQFNELLNPVVVAQMSKQRKQKKVPVKNPAGEAKRGRGRPRKQSSEEKVQIPKVVVKFEPKKRGRPAGAAKWSQEVAVVLQKQPQRKRGRPLKIAKKIEPVFHQKKESKQNSEEKALIQQEAVKGEPKNRGRPCGAAERSREVVKKLQKQPPRKRGRPLKIAKNMEPEINQKKDTKQVHVCPICTLASKNGTCLCTKCQKWVHLKCTGIRSKQWNSQFQCKNCTC | not soluble |
| MSYQGRARKFLESASIDVGDMVLVEKPDVTYEGMVLDRADDADDRHIVLKLENGYNIGVEISDARIELLEKGSEPRIELPPVEAAEDPELPDVSIISTGGTVASIIDYRTGAVHPAFTADDLLRANPELLDIANIRGRAVFNILSENMKPEYWVETARAVYGEIKDGADGVVVAHGTDTMHYTSAALSFMLRTPVPVVFTGAQRSSDRPSSDASLNIQCSVRAATSEIAEVTVCMHATMDDLSCHLHRGVKVRKMHTSRRDTFRSMNALPLAEVTPDGIKILEENYRKRGSDELELSDRVEERVAFIKSYPGISPDIIKWHLDEGYRGIVIEGTGLGHCPDTLIPVIGEAHDMGVPVAMTSQCLNGRVNMNVYSTGRRLLQAGVIPCDDMLPEVAYVKMCWVLGQTDDPEMAREMMRENIAGEINERTSIAYFRG | soluble |
| MSYQVTTLQARKDMARARLGQIPLPRITHIAFGTGGHLPGDVLTPVKPSETATSLEQEVARFPIASAVLKNDTTVEYKVVIPKGALSGVVLTEQALIDQNGKVVAIKTFGAKKKEPEDEFTFTWEEDF | not soluble |
| MTAARSAPSPAGAPRPGLRERKKTRTREAIRAATYGLIRQQGYEATTVEQIAERAEVSPSTVLRYFPTREDIVLTDEYDPVMAAELAARPAGEPWSDSLRHVLRKALGLGAGEEAELIRLRTRLLAEVPAVRARMLENMSDTGRMLARAIADRTGLDPDGLEVRIVSMSLVGGLMEVSRYWAEHDHEESLAELVDRALDALENGLPALRESDRESDREGDRGGHREDRREGPRKD | soluble |
